The values below come from publication doi:10.1101/2022.12.08.519103 (bioRxiv, 2022).

Square brackets hold non-standard residues; d marks the D form. Ends that are not written are not given here. pS = N[C@@H](COP(=O)(O)O)C(=O)O

Common to all, as to experiment: Holdup Multiplex
Experiment [1] addresses T1, AviTag-His6-MBP-TEVsite-14-3-3γ (human, UniProt P61981 1-247).
T1 sequence (looked up): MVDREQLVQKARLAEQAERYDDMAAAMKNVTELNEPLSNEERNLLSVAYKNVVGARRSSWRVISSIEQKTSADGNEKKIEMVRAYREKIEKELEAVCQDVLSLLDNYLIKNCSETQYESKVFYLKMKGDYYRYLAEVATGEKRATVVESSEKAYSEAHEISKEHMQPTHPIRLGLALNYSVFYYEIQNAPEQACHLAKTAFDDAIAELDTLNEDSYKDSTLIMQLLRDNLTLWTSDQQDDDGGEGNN

In experiment [2] the target is T2, AviTag-His6-MBP-TEVsite-14-3-3ε (human, UniProt P62258 1-255).
T2 sequence (looked up): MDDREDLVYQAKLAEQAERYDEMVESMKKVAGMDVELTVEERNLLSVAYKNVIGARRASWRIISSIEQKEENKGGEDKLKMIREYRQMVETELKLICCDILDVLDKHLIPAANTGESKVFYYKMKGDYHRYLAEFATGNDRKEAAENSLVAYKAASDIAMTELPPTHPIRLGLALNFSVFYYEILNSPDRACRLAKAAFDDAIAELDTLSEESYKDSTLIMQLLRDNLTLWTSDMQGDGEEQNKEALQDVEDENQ

Experiment [3] concerns the target T3, AviTag-His6-MBP-TEVsite-14-3-3σ (human, UniProt P31947 1-248).
T3 sequence (looked up): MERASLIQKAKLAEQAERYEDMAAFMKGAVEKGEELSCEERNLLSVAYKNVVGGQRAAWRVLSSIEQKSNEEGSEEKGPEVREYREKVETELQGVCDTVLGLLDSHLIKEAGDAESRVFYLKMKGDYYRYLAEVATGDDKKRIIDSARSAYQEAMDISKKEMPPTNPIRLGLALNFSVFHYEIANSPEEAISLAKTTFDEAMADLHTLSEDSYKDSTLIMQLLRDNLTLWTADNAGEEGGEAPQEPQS

B1: YAP1 pSer276 phosphopeptide (peptide, UniProt P46937 271-280, looked up)
peptide: QRISQ[pS]APVK
modifications: also: phosphoserine at 276 (S4 or S6)
The Kd is the concentration at which binding is half-saturated. The low end stands for higher affinity, the high end for lower affinity. Regarding B1, in experiment [1], the affinity, expressed as Kd, was 0.7 µM.

B2: IRS2 pSer384 phosphopeptide (peptide, UniProt Q9Y4H2 379-388, looked up)
peptide: GARPV[pS]VAGS
modifications: also: phosphoserine at 384 (S6 or S10)
Take B2: the Kd in experiment [2] was ~900 µM.

B3: phosphopeptide centered on pSer75 from CDK17 (peptide, UniProt Q00537 70-79, looked up)
peptide: LRRPH[pS]VIGG
For B3, in experiment [3], the “Kd ratio between γ and σ” value turned out to be 60 fold.
